These results are taken from patent publication US20150037339A1.

Experiment [1] concerns the target Activin A (homodimer of two inhibin βA subunits; R&D Systems, #338-AC) (human) (UniProt P08476). Briefly: SPR blocking: 5 nM Activin A + 60 nM binder over Follistatin-288 surface.
For experiment [2] the target is unchanged. Nature of the experiment: SPR blocking: 5 nM Activin A + 7.5 nM binder over Follistatin-288 surface.
Experiment [3] shares this target. Nature of the experiment: SPR blocking: 5 nM Activin A + 60 nM binder over hActRIIA-hFc surface.
The target is the same in experiment [4]. Nature of the experiment: SPR blocking: 5 nM Activin A + 1.88 nM binder over Follistatin-288 surface.
Experiment [5] shares this target. Briefly: SPR blocking: 5 nM Activin A + 0.94 nM binder over hActRIIA-hFc surface.
The target is the same in experiment [6]. Briefly: SPR blocking: 5 nM Activin A + 15 nM binder over hActRIIA-hFc surface.
The target is the same in experiment [7]. Briefly: SPR blocking: 5 nM Activin A + 30 nM binder over hActRIIB-hFc (Control 4) surface.
Experiment [8] shares this target. Briefly: SPR blocking: 5 nM Activin A + 0 nM binder over Follistatin-288 surface.
The target is the same in experiment [9]. Briefly: SPR blocking: 5 nM Activin A + 30 nM binder over hActRIIA-hFc surface.
The target is the same in experiment [10]. Briefly: SPR blocking: 5 nM Activin A + 3.75 nM binder over hActRIIA-hFc surface.
For experiment [11] the target is unchanged. Nature of the experiment: SPR blocking: 5 nM Activin A + 0.00 nM binder over hActRIIB-hFc (Control 4) surface.
The target is the same in experiment [12]. Briefly: SPR blocking: 5 nM Activin A + 0.94 nM binder over hActRIIB-hFc (Control 4) surface.
For experiment [13] the target is unchanged. Nature of the experiment: SPR blocking: 5 nM Activin A + 3.75 nM binder over Follistatin-288 surface.
The target is the same in experiment [14]. Briefly: SPR blocking: 5 nM Activin A + 60 nM binder over hActRIIB-hFc (Control 4) surface.
Experiment [15] has the same target. Nature of the experiment: SPR blocking: 5 nM Activin A + 30 nM binder over Follistatin-288 surface.
For experiment [16] the target is unchanged. Briefly: SPR blocking: 5 nM Activin A + 0.94 nM binder over Follistatin-288 surface.
For experiment [17] the target is unchanged. Briefly: SPR blocking: 5 nM Activin A + 7.50 nM binder over hActRIIA-hFc surface.
The target is the same in experiment [18]. Briefly: SPR blocking: 5 nM Activin A + 0.00 nM binder over hActRIIA-hFc surface.
Experiment [19] has the same target. Nature of the experiment: SPR blocking: 5 nM Activin A + 3.75 nM binder over hActRIIB-hFc (Control 4) surface.
For experiment [20] the target is unchanged. Briefly: SPR blocking: 5 nM Activin A + 15 nM binder over hActRIIB-hFc (Control 4) surface.
Experiment [21] shares this target. Briefly: SPR blocking: 5 nM Activin A + 1.88 nM binder over hActRIIB-hFc (Control 4) surface.
Experiment [22] shares this target. Nature of the experiment: SPR blocking: 5 nM Activin A + 15 nM binder over Follistatin-288 surface.
The target is the same in experiment [23]. Briefly: SPR blocking: 5 nM Activin A + 7.50 nM binder over hActRIIB-hFc (Control 4) surface.
Experiment [24] shares this target. Nature of the experiment: SPR blocking: 5 nM Activin A + 1.88 nM binder over hActRIIA-hFc surface.
The target in experiment [25] is hBMP6 (human) (UniProt P22004). Briefly: SPR (Biacore 4000), captured on anti-human Fc, 200 nM ligand injected, 37 C. (In general: In SPR one partner is held on a chip, and binding of the other changes the refractive index at the surface.)
Experiment [26] deals with Activin AC (human) (UniProt P55103). Described as above.
For experiment [27], the target named is hBMP10 (human) (UniProt O95393). The experiment is described as above.
For experiment [28], the target named is Activin B (human) (UniProt P09529). The experiment is described as above.
The target in experiment [29] is GDF8 (human) (UniProt O14793). The description is as above.
The target in experiment [30] is GDF11 (human) (UniProt O95390). The experiment is described as above.
For experiment [31], the target named is Activin A (human) (UniProt P08476). Described as above.
The target in experiment [32] is hBMP2 (human) (UniProt P12643). The experiment is described as above.
Experiment [33] concerns the target Activin AB (human) (UniProt P08476). Described as above.
Experiment [34] addresses hBMP7 (human) (UniProt P18075). Described as above.
Experiment [35] deals with hBMP9 (human) (UniProt Q9UK05). Described as above.
Experiment [36] concerns the target hBMP4 (human) (UniProt P12644). The description is as above.
Experiment [37] has as its target Activin A (human) (UniProt P08476). Nature of the experiment: Octet cross-competition; binder on sensor tip; 50 nM hActivin A pre-bound with 1 uM Control 3 (col 11); dark grey box. In general terms: BLI is a label-free optical method that tracks binding on a fibre tip over time.
Experiment [38] shares this target. Briefly: Octet cross-competition; binder on sensor tip; 50 nM hActivin A pre-bound with 1 uM H4H10423P (col 4); dark grey box.
Experiment [39] has the same target. Nature of the experiment: Octet cross-competition; binder on sensor tip; 50 nM hActivin A mixed with 1 uM Isotype control 13 (-) (col 13); light grey box (self).
Experiment [40] shares this target. Briefly: Octet cross-competition; binder on sensor tip; 50 nM hActivin A pre-bound with 1 uM Control 1 (col 10); dark grey box.
Experiment [41] has the same target. Nature of the experiment: Octet cross-competition; binder on sensor tip; 50 nM hActivin A pre-bound with 1 uM H4H10429P (col 6); dark grey box.
Experiment [42] shares this target. Nature of the experiment: Octet cross-competition; binder on sensor tip; 50 nM hActivin A pre-bound with 1 uM H4H10446P2 (col 1); dark grey box.
Experiment [43] shares this target. Briefly: Octet cross-competition; binder on sensor tip; 50 nM hActivin A pre-bound with 1 uM H4H10432P2 (col 7); dark grey box.
The target is the same in experiment [44]. Nature of the experiment: Octet cross-competition; binder on sensor tip; 50 nM hActivin A mixed with 1 uM Isotype control 12 (-) (col 12); light grey box (self).

Activin A (human), sequence (P08476 311-426 limits assumed): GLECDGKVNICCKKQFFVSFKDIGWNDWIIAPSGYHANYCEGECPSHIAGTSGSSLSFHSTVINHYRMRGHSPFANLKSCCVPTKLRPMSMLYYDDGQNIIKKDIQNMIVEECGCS
Activin A (homodimer of two inhibin βA subunits; R&D Systems, #338-AC) (human), sequence (P08476 311-426 limits assumed): as above
hBMP7 (human), sequence (P18075 293-431 limits assumed): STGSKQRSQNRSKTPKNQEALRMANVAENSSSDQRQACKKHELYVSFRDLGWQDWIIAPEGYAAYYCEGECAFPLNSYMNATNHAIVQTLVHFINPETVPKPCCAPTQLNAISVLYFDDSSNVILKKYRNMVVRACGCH
hBMP2 (human), sequence (P12643 283-396 limits assumed): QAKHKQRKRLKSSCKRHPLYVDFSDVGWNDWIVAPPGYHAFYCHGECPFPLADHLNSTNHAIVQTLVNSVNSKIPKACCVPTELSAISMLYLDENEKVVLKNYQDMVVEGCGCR
GDF11 (human), sequence (O95390 299-407 limits assumed): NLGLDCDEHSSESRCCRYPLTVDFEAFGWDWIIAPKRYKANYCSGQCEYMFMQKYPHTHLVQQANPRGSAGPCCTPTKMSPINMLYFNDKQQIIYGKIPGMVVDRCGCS
Activin B (human), sequence (P09529 293-407 G326S limits assumed): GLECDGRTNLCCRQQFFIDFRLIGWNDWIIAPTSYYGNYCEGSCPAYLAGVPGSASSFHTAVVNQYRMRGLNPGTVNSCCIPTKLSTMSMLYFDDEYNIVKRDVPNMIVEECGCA
Activin AC (human), sequence (chain, as listed by the source, chain 1 of 2): as the sequence (P08476 311-426 limits assumed) above
Activin AC (human), sequence (P55103 237-352, chain 2 of 2): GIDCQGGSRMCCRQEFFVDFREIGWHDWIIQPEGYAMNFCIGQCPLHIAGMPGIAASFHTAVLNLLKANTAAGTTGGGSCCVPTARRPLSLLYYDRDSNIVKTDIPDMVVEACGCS
Activin AB (human), sequence (P08476 311-426 limits assumed, chain 1 of 2): as the sequence (P08476 311-426 limits assumed) above
Activin AB (human), sequence (chain, as listed by the source limits assumed, chain 2 of 2): as the sequence (P09529 293-407 G326S limits assumed) above
hBMP4 (human), sequence (P12644 293-408 limits assumed): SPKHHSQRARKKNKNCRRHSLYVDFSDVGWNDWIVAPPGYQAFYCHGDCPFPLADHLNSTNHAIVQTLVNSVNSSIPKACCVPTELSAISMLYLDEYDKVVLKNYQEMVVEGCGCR
hBMP9 (human), sequence (Q9UK05 320-429 limits assumed): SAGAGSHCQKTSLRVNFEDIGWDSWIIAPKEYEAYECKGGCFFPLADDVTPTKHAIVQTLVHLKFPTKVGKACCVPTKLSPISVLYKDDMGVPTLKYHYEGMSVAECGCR
hBMP6 (human), sequence (P22004 382-513 limits assumed): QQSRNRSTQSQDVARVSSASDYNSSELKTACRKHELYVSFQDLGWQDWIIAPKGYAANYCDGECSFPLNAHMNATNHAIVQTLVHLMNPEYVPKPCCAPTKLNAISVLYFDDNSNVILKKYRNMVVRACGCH
hBMP10 (human), sequence (O95393 317-424 limits assumed): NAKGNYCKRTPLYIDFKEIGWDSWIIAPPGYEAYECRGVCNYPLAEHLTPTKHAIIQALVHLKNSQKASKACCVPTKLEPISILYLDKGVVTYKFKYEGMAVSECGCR

Turning to “Control 3 (murine anti-Activin A monoclonal antibody from R&D Systems, catalog number MAB3381)”, the % bound RU w/no inhibitor in experiment [1] amounted to 9%; in experiment [2], 33%; in experiment [3] it was 0%; in experiment [4] it was 170%; in [5], 207%; in experiment [6], 1%. In addition, the % bound RU w/no inhibitor was found to be 1% in [7]; 100% in experiment [8]; 1% in experiment [9]; 139% in experiment [10]; 100% in [11]; 135% in experiment [12]. In addition, the % bound RU w/no inhibitor in experiment [13] turned out to be 145%; in experiment [14], 2%; in experiment [15] it was 7%; in experiment [16], 172%; in experiment [17], 32%; in [18], 100%. For the same substance, the % bound RU w/no inhibitor turned out to be 120% in experiment [19]; 2% in experiment [20]; 133% in [21]; 5% in experiment [22]; 33% in experiment [23]; 190% in [24].

Regarding Isotype Control mAb (antibody), the binding response (resonance units) for 200 nM ligand is 5.1 RU in experiment [25]; -0.1 RU in experiment [26]; 0.3 RU in experiment [27]; 1.9 RU in experiment [28]; 0.5 RU in experiment [29]; 3 RU in experiment [30]. Further, the binding response (resonance units) for 200 nM ligand was -0.1 RU in experiment [31]; -1 RU in experiment [32]; -0.1 RU in [33]; 4.3 RU in experiment [34]; -1 RU in [35]; 0.4 RU in experiment [36].

For the substance isotype control antibodies (antibody), the binding response in [37] came to 0.2; in experiment [38], 0.18; in experiment [39], 0.24; in [40], 0.26; in experiment [41], 0.22; in experiment [42] it was 0.22. The values for the binding response in experiment [43] and in experiment [44] were 0.14 and 0.15, respectively.

As to isotype control antibody (Example 8), the % bound RU w/no inhibitor was determined as 103% in experiment [1]; 102% in experiment [2]; 119% in experiment [3]; 102% in experiment [4]; 109% in [5]; 116% in experiment [6]. Also, the % bound RU w/no inhibitor turned out to be 111% in experiment [7]; 100% in experiment [8]; 118% in [9]; 110% in [10]; 100% in experiment [11]; 105% in experiment [12]. For the same substance, the % bound RU w/no inhibitor in experiment [13] was 97%; in experiment [14] it was 115%; in experiment [15], 104%; in [16] it was 100%; in experiment [17], 115%; in [18], 100%. For the same substance, the % bound RU w/no inhibitor in experiment [19] came to 104%; in experiment [20] it was 110%; in experiment [21] it was 105%; in [22] it was 102%; in [23] it was 107%; in [24], 112%.
